Laboratory results from publication PMC314469, “Protein Interaction Networks by Proteome Peptide Scanning” (PLoS Biology, 2004).

Biological target: Sho1 SH3 (SHO1_YEAST), P40073
Assay: SPOT array

Chain of Sho1 SH3 (SHO1_YEAST), P40073 (P40073 295-366): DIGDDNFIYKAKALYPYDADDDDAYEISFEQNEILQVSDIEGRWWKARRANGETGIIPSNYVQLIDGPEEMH

Row | Binder | normalised SPOT signal, Boehringer light units (BLU); mean over the file's lines of this peptide
1 | SKIPMLPSRRTMAG [505-518 Meiotic regulatory protein; Cys-His zinc fingers] | 1130
2 | VFLPTAPSKHMDFA [478-491 TATA binding protein-associated factor (TAF)] | 342
3 | VDAPINPTKILTFI [375-388 Weak similarity to Pta1p (pre-tRNA processing protein)] | 174
4 | SHLPLIPEKIKSLK [203-216 similar to E. coli DinB and S. cerevisiae REV1] | 175
5 | SNDPIPPPRKVSDV [457-470 transcriptional activator of the SKN7 mediated 'two-component' regulatory system] | 108
6 | SSQPRPPPRPQQNP [71-84 Hypothetical ORF] | 83.4
7 | SSTPIVPNRLKTVL [158-171 DNA replication helicase] | 161
8 | TLIPPIPEKQSIKN [210-223 Hypothetical ORF] | 86.6
9 | SDLPSSPIKAPNVE [232-245 DNA replication helicase] | 191
10 | SNSPQIPKKKVKDQ [1825-1838 Hypothetical ORF] | 67.2
11 | SELPKSPYRQKPTQ [124-137 " involved in meiosis, nuclear division and spore formation"] | 200
12 | TDSPQLPSKDKSQE [472-485 " Anti-silencing protein, involved in transcription"] | 81.7
13 | TEVPSKPKKPSKTE [568-581 negative regulator of prp genes] | 79.6
14 | TSAPDIPPRSPNRN [54-67 Hypothetical ORF] | 107
15 | TPPPVEPLKTKDLA [102-115 Hypothetical ORF] | 128
16 | TEAPMNPLKNREQM [114-127 Centractin] | 132
17 | TPAPNLPEKTRLAL [872-885 Urea amidolyase (contains urea carboxylase and allophanate hydrolase)] | 60.9
18 | SNSPISPHKLIYKN [473-486 positive transcriptional regulator of ADH2 and peroxisomal protein genes] | 86.9
19 | SKGPRTPAKEILEF [310-323 " similar to Est1, which is a putative component of telomerase"] | 1610
20 | VFSPTNPLRIKIAR [326-339 putative calcium channel] | 102
21 | TNPPIDPIREANVM [572-585 Glutamate synthase (NADPH)] | 0

Row | Binder | normalised SPOT signal, Boehringer light units (BLU); mean over the file's lines of this peptide
22 | TLRPGIPLKPMLAK [384-397 DNA ligase] | 452
23 | TRRPHHPLKQQSTN [34-47 Hypothetical ORF] | 177
24 | VETPPKPIKKDVRF [535-548 " cytoskeletal protein, similar to arrestins"] | 8540
25 | TKTPTQPIRLQTVS [519-532 putative zinc finger protein] | 40.1
26 | SLAPVYPLKSLLRI [665-678 Hypothetical ORF] | 91.3
27 | TEPPMNPLKNREKM [109-122 actin-related protein] | 138
28 | SAFPQSPIRAYGST [1382-1395 negative regulator of early meiotic genes] | 75.1
29 | STSPPRPKRIVVAI [48-61 Phenylacrylic acid decarboxylase] | 115
30 | SNFPDFPLKKYLKN [333-346 Hypothetical ORF] | 115
31 | SSRPTSPVRKARST [28-41 (putative) cell cycle exonuclease] | 102
32 | TNYPVNPEKHEMDK [1667-1680 GTPase activating protein] | 29.3
33 | SALPILPKREVVTR [19-32 soluble cell wall protein] | 141
34 | SHQPYLPIKNKNIV [329-342 Hypothetical ORF] | 65.5
35 | TSTPPLPRRRATTS [247-260 Glycine-threonine-serine repeat protein] | 366
36 | SNNPSKPRKYKTKS [110-123 Hypothetical ORF] | 332
37 | SGKPKKPYRRWTPE [666-679 negative regulator of prp genes] | 233
38 | SSMPNSPKKPVDSL [117-130 Product of gene unknown] | 63.7
39 | SSIPPNPGKTAKPI [108-121 " Probable transcription-associated factor protein, probable -transducin type"] | 121
40 | TTRPAPPSKAKDVA [347-360 Hypothetical ORF] | 763
41 | SLPPTPPYKAHKKK [353-366 Hypothetical ORF] | 544

Results, then the binder that gave them:

Row | normalised SPOT signal, Boehringer light units (BLU); mean over the file's lines of this peptide | Binder
42 | 178 | TDYPFKPPKISFTT
43 | 118 | SASPYRPQRLPAKF [13-26 Hypothetical ORF]
44 | 214 | SSTPTTPERPKRKS [758-771 Hypothetical ORF]
45 | 124 | SKFPELPSKVHNAV [141-154 methionyl tRNA synthetase]
46 | 135 | SDKPLTPTKTSSTL [341-354 DNA Damage Inducible; binds to T- and V- snare complexes]
47 | 210 | SSFPTIPLRASSGA [232-245 Hypothetical ORF]
48 | 132 | TKVPSKPDRNSKIL [463-476 global regulator of transcription]
49 | 334 | SMYPGLPSRLEKEL [307-320 actin-related protein]
50 | -0 | VDPPFMPFRDAGYS [120-133 soluble tyrosine-specific protein phosphatase]
51 | 157 | SEEPTSPTRQVNPE [443-456 Putative participant in 3' mRNA processing]
52 | 74.8 | TDYPFKPPKVNFTT
53 | 73.5 | SSYPMNPPKISFMQ [86-99 Member of ubiquitin-conjugating protein family]
54 | 45.2 | TTAPRGPKKAQPAQ [176-189 transcriptional activator of the SKN7 mediated 'two-component' regulatory system]
55 | 212 | SASPTLPTRRSRRL [62-75 Hypothetical ORF]
56 | 1010 | SRKPPIPAKQHVKK [547-560 Ubiquitin-specific protease]
57 | 60.5 | THAPTTPNRTSPNR [507-520 serine/threonine protein kinase]
58 | 103 | SGKPLFPGRDYHHQ [221-234 MAP protein kinase homolog involved in pheromone signal transduction]
59 | 157 | VENPFLPAKEERTG [910-923 159-kDa nucleoporin with coiled-coil domain and repeated motifs typical of nucleoporins]
